Common to all, as to assay: ELISA
The target in test [1] is α-synuclein protein aggregates (Homo sapiens, UniProt P37840).
For a further test, the target named is SOD protein aggregates (Homo sapiens (assumed), UniProt P00441).
Test [2] has as its target Aβ(1–28), synthetic, aggregated in the presence of Ca2+ (Homo sapiens, UniProt P05067).

Sequence of SOD protein aggregates (P00441 whole entry): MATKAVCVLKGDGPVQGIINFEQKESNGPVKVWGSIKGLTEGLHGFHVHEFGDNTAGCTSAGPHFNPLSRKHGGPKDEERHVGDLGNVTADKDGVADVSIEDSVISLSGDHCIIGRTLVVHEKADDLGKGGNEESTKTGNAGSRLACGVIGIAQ
Sequence of Aβ(1–28), synthetic, aggregated in the presence of Ca2+ (P05067 672-699): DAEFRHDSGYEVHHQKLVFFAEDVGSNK

B1: B28, human monoclonal antibody raised against synthetic oligomeric amyloid-β (antibody, V domains shown)
VH: QVQLVESGGGVVQPGRSVRLSCAATGFTFSSYGMHWVRQAPGKGLEWVAVIWFDGSNEYYADSVRGRFTISRDNSKNTLYLQMNSLRAEDTAVYYCARRGRVGVTRNYYYYNMDVWGQGTTVTVSS
VL: AIQMTQSPSSLSASVGDRVTITCRASQGIRNDLGWFQQKPGKAPKLLIYPASSLQSGVPSRFSGSGSDTDFTLTISSLQPEDFATYYCLQDYNFPFTFGPGTKVDIK
On to B1, for which the binding result (in test [1]; with SOD protein aggregates) was “no binding” throughout.

B2: B24, human monoclonal antibody raised against synthetic oligomeric amyloid-β (antibody, V domains shown)
VH: EVQLLESGGGLVQPGGSLRLSCAASGFTFSSYAMTWVRQAPGEGLEWVSTISGSGIRTYYADSVKGRFTISRDNSKNTMYLQMNSLRAEDTAVYYCAKDGLTGDRRWYFDLWGRGTLVTVSS
VL: EIVMTQSPATLSLSPGERATLSCRASQSVSSSYFSWYQQKPGQAPRLLIYGASTRATGIPARFSGSGSGTDFTLTISSLQPEDFAVYYCQQDSNLPLTFGGGTKVEIK
Consider B2, for which the binding result in test [2] is “binds”; in test [1] it was “no binding”; in the test with SOD protein aggregates it was “no binding”.

(Values after article PMC9337809 (Brain, 2022).)
